Assay: Glycan array STn specificity and anti-STn antibody group
Assay type: binding
Design: key to Group: Group 1 antibodies according to the invention are antibodies capable of binding AcSTn and GcSTn; Antibodies were assigned to Group 2 based on their ability to bind STn as well as some related structures that include an O-linkage to serine or threonine; Group 3 antibodies are antibodies capable of binding STn, but may also bind a broader set of related structures; Group 4 antibodies are capable of binding to both AcSTn and GcSTn as well as the un-sialylated Tn antigen
Protocol: Optimized glycan arrays comprise 71 chemically synthesized and well-defined glycans, most of which comprise Neu5Ac and Neu5Gc glycan pairs.
300 ml of epoxy blocking buffer is prepared by combining 15 ml of 2 M Tris buffer (pH 8) with 0.9 ml of 16.6 M ethanolamine and 284.1 ml of distilled water. The solution is filtered using a […] nitrocellulose membrane. The epoxy buffer solution as well as 1 L of distilled water are pre-warmed to 50° C. Glass slides are arranged in a slide holder and quickly submerged in a staining tub with the warmed epoxy blocking buffer. Slides are incubated in the epoxy blocking buffer for 1 hour at 50° C. with periodic shaking to deactivate epoxy binding sites. Next, slides are rinsed and blocked with PBS with 1% OVA at 25° C. for one hour. Serum samples are diluted 1:1000 in PBS with 1% OVA and added to the glycan array for one hour at 25° C. After extensive washing, binding of polyclonal serum antibodies are detected by incubating glycan microarray slides with Cy3-conjugated anti-mouse IgG (Jackson Immunoresearch, West Grove, Pa.) for one hour. Slides are then washed extensively, dried and scanned with a Genepix 4000B scanner (Laser at 100%; gain at 350; 10 μm pixels). Raw data from scanned images are extracted using the Genepix software and analysis of raw data is carried out.
Based on characterization data, anti-STn antibodies developed from Group 6 and Group 8 mice were categorized by anti-STn group number. In some cases, antibodies were assigned to Group 1. Group 1 antibodies according to the invention are antibodies capable of binding AcSTn and GcSTn. Such antibodies may have the ability to associate with a wider range of STn structures. The large oval in FIG. 1A indicates the portion of STn recognized by Group 1 antibodies. […] Also listed in the Table is the antibody Isotype for each antibody as determined by the IsoStrip mouse monoclonal antibody isotyping kit (Roche Diagnostics GmbH, Manheim, Germany).

B1: 18D2: anti-STn monoclonal antibody from mouse #4436; IgG2b κ; heavy chain SEQ ID NO 1, light chains SEQ ID NO 2 and 3 (antibody, V domains shown)
VH: QVTLKESGPGILQPSQTLSLTCSFSGFSLSTSNMGIGWIRQPSGKGLEWLAHIWWHDDKYYNPSLKSRLTISKDISNNQVFLKITSVDTADTATYYCAQVPFYYGTSFDVWGTGTTVTVSS
VL 1: DIVMTQSPATLSVTPGDRVSLSCRASQSISDYLHWYQQKSHESPRLLIKYASQSISGIPSRFSGSGSGSDFTLSINSVEPEDVGVYYCQNGHSFPLTFGAGTKLELK
VL 2: QIVLTQSPAIMSASPGETVTMTCSASSSITYMHWYQQKPGTSPKRWIYDTSKLASGVPARFSGSGSGTSYSLTISSMEAEDAATYYCHQRSSYTFGGGTKLEIKR
  Glycan Array STn Specificity: 100%
Assigned from flow cytometry and glycan array analysis
  Group: 1

Reference: US20160264684A1, “GLYCAN-INTERACTING COMPOUNDS AND METHODS OF USE” (SIAMAB THERAPEUTICS, INC., priority 2013, published 2016)
